T1: amphyphisin SH3 (AMPH_HUMAN), P49418
T1 chain: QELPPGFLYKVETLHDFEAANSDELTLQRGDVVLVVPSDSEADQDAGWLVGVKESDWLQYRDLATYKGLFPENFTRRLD


Experiments:
[1] = target: T1, amphyphisin SH3 (AMPH_HUMAN), P49418; assay: SPOT array
[2] = target: endophilin SH3 (SH3G2_HUMAN), Q99962; assay: SPOT array

Binder	normalised SPOT signal, Boehringer light units (BLU); mean over the file's lines of this peptide [1]	normalised SPOT signal, Boehringer light units (BLU); mean over the file's lines of this peptide [2]
GSSALKRPFEDGLG [Q9BXG4 352-365]	27.5	39.6
ALLVPVKPPTAWEG [Q8TCB4 82-96]	2.4	55.1
GSGSPVRPPVSTWG [Q9NUB4 27-41]	32.2	16.6
GTGSPARPPTPAQV [Q9Y4Y7 208-222]	85.9	2420
GVSKPRKPPMVMTP [Q9Y6X0 438-452]	58.3	328
ALPLPRRPSALPPK [Q96MH8 48-61]	151	5800
GSPEPKRPGVSEAA [Q9UN79 64-77]	26.6	17.9
GTRQLGRPKRSPRS [P01266 150-163]	148	152
ALPLPGRPARGVFY [Q9P025 127-140]	602	1290
ALPHFRRPFFEEAA [Q9HCI5 739-752]	43.2	95.9
GTYQLRRPEDRPAG [Q96AB7 34-47]	14.3	21.7
GVISLKRPFINLTA [Q9NYQ8 617-630]	16.4	35.8
GWIQPRRPRDPTPS [Q14137 202-215]	76.8	836
GSQAPARPPKPRPR [Q13191 898-911]	423	62500
GSELPRRPLPPAAQ [P04818 4-17]	40.1	70.6
GTVELRRPGQSHAA [Q9NVM4 598-611]	29	42.6
GTLPPPRPRREGRS [Q9H7L8 148-161]	5470	3720
GTRAPQRPKRESRG [Q9H7I4 14-27]	11400	1420
GYDRLRRPGSRSKH [Q9C004 264-277]	30.6	142
GVPVPKRPAEGGGG [Q9NY27 58-71]	17.4	88.7
GYPAFKRPHMTAKD [Q96LM6 67-80]	31.1	97.4
GTPKPKRPAILTYH [Q9UN36 56-69]	33.4	1130
GWGSPRRPTEAEAR [Q14767 91-104]	23.4	194
GYQAFRRPSYSWGV [O14842 113-126]	35	229
GTVYPKRPEKPVPP [Q9Y5K6 406-419]	42.9	962

Continued, values first:

normalised SPOT signal, Boehringer light units (BLU); mean over the file's lines of this peptide [1]	normalised SPOT signal, Boehringer light units (BLU); mean over the file's lines of this peptide [2]	Binder
51.3	706	GSPAPKRPPDPFPG [O43593 424-437]
61.8	577	GYTGPPRPPPYGYQ [Q15427 383-397]
9890	2470	GSVHPVRPMRLESF [P26022 194-207]
48.3	247	GWATPRRPAGLLML [O60449 4-17]
1710	13600	GSQVPERPPKPFPR [P22681 815-829]
168	1880	GSWSPMRPKKEAMK [O75928 422-435]
125	1350	GSGKPSRPSKPIVA [Q15598 1240-1253]
135	317	GWGSPGRPKKKHTG [O94987 842-855]
2560	747	GYGLLVRPSRVRRA [O75134 505-518]
39.3	2530	GSEKPKRPVSAMFI [P17480 403-416]
2550	39.1	GWRSLQRPARRSGR [Q99700 27-40]
372	2350	GSEPPRRPPPAPHD [P48634 1687-1701]
31.2	141	GYDSLRRPGSRSKR [O43610 251-264]
55.2	52.2	GSVELRRPPAHQVM [Q15142 511-524]
47.4	45.8	GTQELRRPAQLRLQ [P98161 595-608]
248	91.7	GSESLSRPWRARAK [O94851 799-812]
72.7	318	GSSSPSRPPGLSSN [BAC05127 110-124]
